According to patent publication US20170292963A1 (Johns Hopkins, published 2017):

Target: T1, Human NPTX2 (native protein in human CSF; antigen of the anti-human NPTX2 antibody) (human, UniProt P47972 17-431)
T1 construct: In CSF the protein is disulfide-linked with NPTX1 in heterocomplexes; also called Narp
T1 sequence: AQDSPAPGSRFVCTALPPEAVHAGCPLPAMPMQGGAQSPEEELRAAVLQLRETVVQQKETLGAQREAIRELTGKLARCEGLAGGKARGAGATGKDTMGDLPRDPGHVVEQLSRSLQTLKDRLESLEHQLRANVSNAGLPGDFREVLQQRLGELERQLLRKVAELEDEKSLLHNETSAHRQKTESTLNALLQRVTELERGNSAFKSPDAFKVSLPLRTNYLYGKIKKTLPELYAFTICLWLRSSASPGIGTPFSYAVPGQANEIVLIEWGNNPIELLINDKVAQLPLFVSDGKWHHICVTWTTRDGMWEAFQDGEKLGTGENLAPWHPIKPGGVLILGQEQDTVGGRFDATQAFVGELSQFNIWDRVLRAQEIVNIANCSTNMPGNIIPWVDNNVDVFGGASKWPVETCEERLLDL
Experiment: co-immunoprecipitation from human CSF

binding result: binds
B1: Human NPTX1 (native protein in human CSF; antigen of the anti-human NPTX1 antibody) (other)
chain: QDFGPTRFICTSVPVDADMCAASVAAGGAEELRSSVLQLRETVLQQKETILSQKETIRELTAKLGRCESQSTLDPGAGEARAGGGRKQPGSGKNTMGDLSRTPAAETLSQLGQTLQSLKTRLENLEQYSRLNSSSQTNSLKDLLQSKIDELERQVLSRVNTLEEGKGGPRNDTEERVKIETALTSLHQRISELEKGQKDNRPGDKFQLTFPLRTNYMYAKVKKSLPEMYAFTVCMWLKSSATPGVGTPFSYAVPGQANELVLIEWGNNPMEILINDKVAKLPFVINDGKWHHICVTWTTRDGVWEAYQDGTQGGSGENLAPYHPIKPQGVLVLGQEQDTLGGGFDATQAFVGELAHFNIWDRKLTPGEVYNLATCSTKALSGNVIAWAESHIEIYGGATKWTFEACRQIN
